From paper PMC2746994 (Biochemistry, 2009)

Legend:
[1] = target: Survivin-GB1Borealin f.l. complex (human, UniProt O15392;Q53HL2); assay: ITC
Survivin, non-tagged = Survivin, non-tagged (human, UniProt O15392 1-142); assay: SEC
Chain of Survivin, non-tagged (O15392 whole entry): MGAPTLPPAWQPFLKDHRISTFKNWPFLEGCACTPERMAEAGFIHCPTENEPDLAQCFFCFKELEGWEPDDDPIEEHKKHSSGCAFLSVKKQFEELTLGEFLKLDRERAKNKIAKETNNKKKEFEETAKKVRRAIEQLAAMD

Chain of Survivin-GB1Borealin f.l. complex (O15392 whole entry, chain 1 of 2): as the sequence (O15392 whole entry) above
Chain of Survivin-GB1Borealin f.l. complex (Q53HL2 whole entry, chain 2 of 2): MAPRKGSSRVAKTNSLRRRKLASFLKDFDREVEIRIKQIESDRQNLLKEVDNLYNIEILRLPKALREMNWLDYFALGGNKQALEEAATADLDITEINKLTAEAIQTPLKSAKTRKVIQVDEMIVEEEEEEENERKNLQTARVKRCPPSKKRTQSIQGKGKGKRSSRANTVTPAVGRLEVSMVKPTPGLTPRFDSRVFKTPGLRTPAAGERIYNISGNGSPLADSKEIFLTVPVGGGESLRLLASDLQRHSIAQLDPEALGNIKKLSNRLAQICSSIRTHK

| Binder | Kd [1] | stoichiometry N [1] | binding result (Survivin, non-tagged) |
| --- | --- | --- | --- |
| INCENP 1-69, His6-tagged (domain or fragment) MGTTAPGPIHLLELCDQKLMEFLCNMDNKDLVWLEEIQEEAERMFTREFSKEPELMPKTPSQKNRRKKR | 27 nM | ~0.75 |  |
| GB1Borealin 13-92 (domain or fragment) TNSLRRRKLASFLKDFDREVEIRIKQIESDRQNLLKEVDNLYNIEILRLPKALREMNWLDYFALGGNKQALEEAATADLD |  |  | binds |
